Results taken from publication PMC7267773, “CCDC61/VFL3 Is a Paralog of SAS6 and Promotes Ciliary Functions” (Structure(London, England:1993), 2020).
Where a chain is given by its changes, count along the chain named. Names may count otherwise.

Key:
[1] = molecular target: the molecule itself; test: AUC; sedimentation equilibrium, 12, 4 and 1.3 mg/ml, 11,600, 19,700 and 34,000 rpm, 4°C; dimer to monomers
[2] = molecular target: the molecule itself; test: AUC; velocity sedimentation, approximately 480 μM (7.9 mg/ml), 20 mM Tris-HCl pH 8.0, 150 mM NaCl, 2 mM DTT, 50,000 rpm, 4°C; c(s) distribution
[3] = molecular target: the molecule itself; test: SEC-MALS; Superdex S200 10/300, 10mM Tris-HCl pH 7.4, 150mM NaCl, room temperature; loaded at 1, 6.5 and 65 mg/ml (wild type) and 1, 6.8 and 73 mg/ml (F129E/D130A)
[4] = molecular target: the molecule itself; test: crystal structure; zCCDC61^1-170, 4.62 mg/ml, 100 mM Citric acid pH 5.0, 1 M LiCl, sitting drop, 20°C

B1: N-terminal head domain of human CCDC61 (hCCDC61^1-143) (domain or fragment)
chain: GSMDQPAGLQVDYVFRGVEHAVRVMVSGQVLELEVEDRMTADQWRGEFDAGFIEDLTHKTGNFKQFNIFCHMLESALTQSSESVTLDLLTYTDLESLRNRKMGGRPGSLAPRSAQLNSKRYLILIYSVEFDRIHYPLPLPYQGKP
notes: extra residues Gly-Ser left at the N-terminus after the His-GST tag was cleaved with tev protease; gene codon optimized for E. coli and synthesized; The crystal (PDB 6HXT) was of the seleno-methionine-substituted protein; also called hCCDC61 head domain; source: E. coli BL21(DE3), purified (GSTrap, tev cleavage, HisTrap flow through, HiTrap Q, PD-10); not shown: His tag, N-terminal, cleaved; GST, …
Question: Which results are given for B1?
Answer: Kd [1]: 170 ± 18 µM; stoichiometry N [2]: 2

B2: His6-lipoyl-zCCDC61^1-170 (domain or fragment, zebrafish (Danio rerio), UniProt Q08CF3 1-170, looked up)
chain: MEVGTVVQEEMKFRGSEFAVKVEMAERLLIVEISDVVTADQWRGEFGPAYIEDLTRKTGNFKQFPVFCSMLESAVHKSSDSVTLDLLTYSDLELLRNRKAGVVGRPRAQPQSPALSAKRYLILIYTVEFDRIHYPLPLPYLGKPDPAELQKEIRALRSELKTLGLRGDHK
notes: zebrafish (Danio rerio) CCDC61, residues 1-170; The His6-lipoyl domain tag was retained for SEC-MALS to stabilize the protein at high concentrations; also called Lipo-zCCDC61^1-170; wild-type; source: E. coli C41 in 2xTY, purified (Ni-NTA, SEC, HiTrap Q-FF); not shown: His6, N-terminal, kept; lipoyl domain (Bacillus stearothermophilus dihydrolipoamide acetyltransferase), N-terminal, kept
Question: Does B2 bind [3]?
Answer: Result: binds

B3: His6-lipoyl-zCCDC61^(1-170; F129E/D130A) (domain or fragment, zebrafish (Danio rerio), UniProt Q08CF3 1-170, looked up)
chain: B2 chain with F129E, D130A
notes: zebrafish (Danio rerio) CCDC61, residues 1-170, with F129E and D130A; also called Lipo-zCCDC61^(1-170); head-to-head dimerization-deficient mutant; source: E. coli C41 in 2xTY, purified (Ni-NTA, SEC, HiTrap Q-FF); not shown: His6, N-terminal, kept; lipoyl domain (Bacillus stearothermophilus dihydrolipoamide acetyltransferase), N-terminal, kept
Question: Does B3 bind [3]?
Answer: Result: binds

B4: zebrafish CCDC61 (residues 1–170; zCCDC61^1-170), lipoyl-domain tag removed (domain or fragment, zebrafish (Danio rerio))
chain: GGSMEVGTVVQEEMKFRGSEFAVKVEMAERLLIVEISDVVTADQWRGEFGPAYIEDLTRKTGNFKQFPVFCSMLESAVHKSSDSVTLDLLTYSDLELLRNRKAGVVGRPRAQPQSPALSAKRYLILIYTVEFDRIHYPLPLPYLGKPDPAELQKEIRALRSELKTLGLRGDHK
notes: extra residues Gly-Gly-Ser left at the N-terminus after the tag was cleaved with tev protease; zebrafish (Danio rerio) CCDC61, residues 1-170, head and part of the coiled-coil domain; Homo-tetramer in the crystal; source: E. coli C41, purified (Ni-NTA, tev cleavage, HisTrap FF, HiTrap Q HP flow through, PD-10); not shown: His tag, N-terminal, cleaved; lipoyl domain (Bacillus stearothermophilus …)
Question: For B4, which “stoichiometry N” value [4] is on record?
Answer: The value was 4.
